In data set [1] the target is T1, Zif268 (mouse, UniProt P08046 333-421). In words: ELISA. A general note: An ELISA detects its analyte on a solid surface through an enzyme-linked reagent.
For data set [2], the target named is T1, Zif268. As to the kind of experiment: SPR. On the technique in general: SPR reads the build-up and loss of mass on a sensor chip optically.
Data set [3] has as its target T1, Zif268. In words: SPR. This is another data set of the same source.

B1: ZifDNA (dsDNA)
DNA 1: GGCATAGTGCGTGGGCGTTAGC
DNA 2: GCTAACGCCCACGCACTATGCC
Usually Kd stands for the concentration at which binding is half-saturated. Read a high Kd as a looser complex. Regarding B1, the figures for the Kd with Zif268 [1] and in the data set with Zif268 [2] were 12 ± 5 nM and 5.3 ± 1.5 nM, respectively.

B2: Htelo (structured_DNA)
DNA: GGTTAGGGTTAGGGTTAGGGTTAGGGTTAG
With B2, the binding result with Zif268 [3] is “no binding”.

Values taken from PMC2196205.
